Measurements as given in patent US20080139466A1.

Target: human TSH receptor on stably transfected CHO cells (JP09 cells) (human) (UniProt P16473)
Assay: cell-based or functional assay

UniProt P16473, sequence (P16473 21-764): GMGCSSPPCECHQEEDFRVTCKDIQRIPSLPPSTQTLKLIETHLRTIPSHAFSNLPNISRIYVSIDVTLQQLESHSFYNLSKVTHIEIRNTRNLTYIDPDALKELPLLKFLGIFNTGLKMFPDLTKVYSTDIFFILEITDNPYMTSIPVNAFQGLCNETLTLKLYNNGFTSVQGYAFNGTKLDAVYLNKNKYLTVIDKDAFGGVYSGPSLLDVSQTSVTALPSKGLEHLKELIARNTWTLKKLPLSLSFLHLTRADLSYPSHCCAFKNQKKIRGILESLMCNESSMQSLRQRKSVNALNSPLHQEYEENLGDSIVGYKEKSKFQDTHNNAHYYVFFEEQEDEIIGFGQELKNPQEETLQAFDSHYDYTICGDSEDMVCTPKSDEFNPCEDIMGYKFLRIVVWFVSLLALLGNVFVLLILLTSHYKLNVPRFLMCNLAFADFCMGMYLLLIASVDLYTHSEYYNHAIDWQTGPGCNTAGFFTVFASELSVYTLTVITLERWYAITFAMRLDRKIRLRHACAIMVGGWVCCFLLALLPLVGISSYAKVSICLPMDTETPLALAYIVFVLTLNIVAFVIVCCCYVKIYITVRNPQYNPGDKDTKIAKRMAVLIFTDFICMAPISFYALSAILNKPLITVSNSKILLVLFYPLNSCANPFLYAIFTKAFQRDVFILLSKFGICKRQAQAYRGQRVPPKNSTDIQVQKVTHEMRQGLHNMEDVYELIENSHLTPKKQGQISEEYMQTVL

cAMP production (cAMP released into medium, RIA) by JP09 cells [pmol/mL]	Substance
25	feline thyrotropin (fTSH) α/β heterodimer (from UniProt Q52R91 25-120; Q52R90 21-132) (ligand)
70	feline thyrotropin yoked polypeptide (β-subunit-CTP-α-subunit) (ligand)
